Data set [1] deals with Sam68 QUA1-KH domain (human). Description: SAXS; 25 °C, 1-20 mg/ml protein in the NMR buffers, in the absence and presence of AAAUAA RNA (10 mg/ml protein, protein/RNA 1:1); molecular weights from Porod volumes.
Data set [2] concerns the molecule itself. The experiment in a line: crystal structure; T-STAR constructs in complex with short RNAs (protein/RNA 1:2), sitting drop vapour diffusion at 4 °C; protein in 10 mM Tris pH 7.0, 50 mM NaCl.
The next data set deals with T1, T-STAR KH-QUA2 (UniProt O75525 50-183).
T1 sequence: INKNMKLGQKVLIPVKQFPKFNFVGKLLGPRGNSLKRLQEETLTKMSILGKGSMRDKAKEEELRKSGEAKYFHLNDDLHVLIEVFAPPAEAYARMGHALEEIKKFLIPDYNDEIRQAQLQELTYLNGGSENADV
The experiment in a line: X-ray crystallography; FP: 10 mM Tris pH 7, 100 mM NaCl, 0.1% beta-mercaptoethanol, 0.2 uM fluorescein-RNA, protein 0-200 uM, temperature not stated; NMR 303 K: Sam68 in 10 mM Tris pH.

A further data set deals with T2, T-STAR KH (UniProt O75525 50-160).
T2 sequence: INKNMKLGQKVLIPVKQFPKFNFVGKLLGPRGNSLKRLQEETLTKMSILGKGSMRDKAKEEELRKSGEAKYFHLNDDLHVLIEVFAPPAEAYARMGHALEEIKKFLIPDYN
Described as above.

In another data set the target is T3, T-STAR QUA1-KH (UniProt O75525 1-160).
T3 sequence: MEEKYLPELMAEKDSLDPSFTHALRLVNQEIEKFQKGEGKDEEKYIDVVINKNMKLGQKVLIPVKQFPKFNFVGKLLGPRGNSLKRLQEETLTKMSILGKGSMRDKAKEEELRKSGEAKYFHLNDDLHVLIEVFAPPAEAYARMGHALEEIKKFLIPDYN
The data set is described as above.

Data set [3] deals with the molecule itself. Description: SAXS; 25 °C, 1-20 mg/ml protein in the NMR buffers, in the absence and presence of AAAUAA RNA (10 mg/ml protein, protein/RNA 1:1); molecular weights from Porod volumes.
Another data set deals with T4, T-STAR STAR (UniProt O75525 1-183).
T4 sequence: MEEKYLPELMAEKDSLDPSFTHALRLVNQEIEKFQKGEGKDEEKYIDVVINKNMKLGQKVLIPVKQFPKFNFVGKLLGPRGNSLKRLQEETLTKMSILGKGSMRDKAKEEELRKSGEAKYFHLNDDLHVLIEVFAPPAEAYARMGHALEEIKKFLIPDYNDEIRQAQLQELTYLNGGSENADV
Description: X-ray crystallography; FP: 10 mM Tris pH 7, 100 mM NaCl, 0.1% beta-mercaptoethanol, 0.2 uM fluorescein-RNA, protein 0-200 uM, temperature not stated; NMR 303 K: Sam68 in 10 mM Tris pH.

The target of another data set is Sam68 STAR (UniProt Q07666 97-283). The experiment in a line: NMR chemical shift perturbation; FP: 10 mM Tris pH 7, 100 mM NaCl, 0.1% beta-mercaptoethanol, 0.2 uM fluorescein-RNA, protein 0-200 uM, temperature not stated; NMR 303 K: Sam68 in 10 mM Tris pH.

Ten molecules from paper PMC4735526 (Nature Communications, 2016) can be followed below.

Usually stoichiometry N stands for a count of units in the complex or per binding partner.

For the molecule “Sam68 QUA1-KH domain (domain or fragment)”, in data set [1], the stoichiometry N amounted to 2.

B1: T-STAR KH domain (amino acids 50-160) (domain or fragment, human, UniProt O75525 50-160, looked up)
chain: INKNMKLGQKVLIPVKQFPKFNFVGKLLGPRGNSLKRLQEETLTKMSILGKGSMRDKAKEEELRKSGEAKYFHLNDDLHVLIEVFAPPAEAYARMGHALEEIKKFLIPDYN
notes: T-STAR/SLM2, human, KH domain, residues 50-160; The free KH structure (5EL3) was phased from a SeMet-labelled KH domain; the complex with AAAUAA is 5ELS; source: E. coli Rosetta BL21 DE3, purified (Ni-NTA, TEV cleavage, size-exclusion chromatography); not shown: His tag (inferred from the Ni-NTA purification)
For B1, in data set [2], the binding result was “binds”.

B2: AAUAAU (ssRNA)
RNA: AAUAAU
Regarding B2, the binding result with T-STAR KH-QUA2 is “binds”.

B3: AAAUAA (ssRNA)
RNA: AAAUAA
On to B3, for which the binding result in the data set with T-STAR KH is recorded as “binds”.

B4: UAAU (ssRNA)
RNA: UAAU
For the molecule B4, in the data set with T-STAR QUA1-KH, the binding result is “binds”.

B5: T-STAR STAR domain (amino acids 1-183) (domain or fragment, human, UniProt O75525 1-183, looked up)
chain: MEEKYLPELMAEKDSLDPSFTHALRLVNQEIEKFQKGEGKDEEKYIDVVINKNMKLGQKVLIPVKQFPKFNFVGKLLGPRGNSLKRLQEETLTKMSILGKGSMRDKAKEEELRKSGEAKYFHLNDDLHVLIEVFAPPAEAYARMGHALEEIKKFLIPDYNDEIRQAQLQELTYLNGGSENADV
notes: Crystallised with AUUAAA RNA; QUA2 region not seen in the electron density; also called SLM2; source: E. coli Rosetta BL21 DE3, purified (Ni-NTA, TEV cleavage, size-exclusion chromatography); not shown: His tag (inferred from the Ni-NTA purification)
With B5, the “stoichiometry N” value in data set [3] was found to be 2.

B6: T-STAR KH-QUA2 domain (amino acids 50-183) (domain or fragment, human, UniProt O75525 50-183, looked up)
chain: INKNMKLGQKVLIPVKQFPKFNFVGKLLGPRGNSLKRLQEETLTKMSILGKGSMRDKAKEEELRKSGEAKYFHLNDDLHVLIEVFAPPAEAYARMGHALEEIKKFLIPDYNDEIRQAQLQELTYLNGGSENADV
notes: T-STAR/SLM2, human, KH and QUA2 domains, residues 50-183; Crystallised with AAUAAU RNA; QUA2 not seen in the electron density; source: E. coli Rosetta BL21 DE3, purified (Ni-NTA, TEV cleavage, size-exclusion chromatography); not shown: His tag (inferred from the Ni-NTA purification)
As to B6, the binding result in data set [2] is on record as “binds”.

B7: Sam68 STAR domain (amino acids 97-283) (domain or fragment, human, UniProt Q07666 97-283, looked up)
chain: MEPENKYLPELMAEKDSLDPSFTHAMQLLTAEIEKIQKGDSKKDDEENYLDLFSHKNMKLKERVLIPVKQYPKFNFVGKILGPQGNTIKRLQEETGAKISVLGKGSMRDKAKEEELRKGGDPKYAHLNMDLHVFIEVFGPPCEAYALMAHAMEEVKKFLVPDMMDDICQEQFLELSYLNGVPEPSRG
notes: Sam68 (Src-associated protein in mitosis of 68 kDa), human, STAR domain (QUA1, KH, QUA2), residues 97-283; also called Src-associated protein in mitosis of 68 kDa; source: E. coli Rosetta BL21 DE3, purified (Ni-NTA, TEV cleavage, size-exclusion chromatography); not shown: His tag (inferred from the Ni-NTA purification)
Turning to B7, the “stoichiometry N” value in data set [3] was 2.

B8: T-STAR QUA1-KH domain (domain or fragment, human)
chain: MEEKYLPELMAEKDSLDPSFTHALRLVNQEIEKFQKGEGKDEEKYIDVVINKNMKLGQKVLIPVKQFPKFNFVGKLLGPRGNSLKRLQEETLTKMSILGKGSMRDKAKEEELRKSGEAKYFHLNDDLHVLIEVFAPPAEAYARMGHALEEIKKFLIPDYN
notes: T-STAR/SLM2, human, QUA1 and KH domains with the linker between them; by the limits of the STAR (1-183) and KH (50-160) constructs they may be 1-160 (surmised); source: E. coli Rosetta BL21 DE3, purified (Ni-NTA, TEV cleavage, size-exclusion chromatography); not shown: His tag (inferred from the Ni-NTA purification)
With B8, the “stoichiometry N” value in data set [3] was determined as 2.

B9: AUUAAA (ssRNA)
RNA: AUUAAA
In the case of B9, the binding result in the data set with T-STAR STAR and in the data set with Sam68 STAR was “binds” each time.
